Measurements published in patent publication US20160115217A1.

What was measured:
[1] = target: Flt1 (VEGFR-1) on Ad-N1IC-transduced HUVEC (human) (UniProt P17948); assay: cell-based or functional assay
[2] = target: Notch1 (full-length receptor expressed on cells); assay: cell-based or functional assay

Chain of Flt1 (VEGFR-1) on Ad-N1IC-transduced HUVEC (human) (P17948 27-1338): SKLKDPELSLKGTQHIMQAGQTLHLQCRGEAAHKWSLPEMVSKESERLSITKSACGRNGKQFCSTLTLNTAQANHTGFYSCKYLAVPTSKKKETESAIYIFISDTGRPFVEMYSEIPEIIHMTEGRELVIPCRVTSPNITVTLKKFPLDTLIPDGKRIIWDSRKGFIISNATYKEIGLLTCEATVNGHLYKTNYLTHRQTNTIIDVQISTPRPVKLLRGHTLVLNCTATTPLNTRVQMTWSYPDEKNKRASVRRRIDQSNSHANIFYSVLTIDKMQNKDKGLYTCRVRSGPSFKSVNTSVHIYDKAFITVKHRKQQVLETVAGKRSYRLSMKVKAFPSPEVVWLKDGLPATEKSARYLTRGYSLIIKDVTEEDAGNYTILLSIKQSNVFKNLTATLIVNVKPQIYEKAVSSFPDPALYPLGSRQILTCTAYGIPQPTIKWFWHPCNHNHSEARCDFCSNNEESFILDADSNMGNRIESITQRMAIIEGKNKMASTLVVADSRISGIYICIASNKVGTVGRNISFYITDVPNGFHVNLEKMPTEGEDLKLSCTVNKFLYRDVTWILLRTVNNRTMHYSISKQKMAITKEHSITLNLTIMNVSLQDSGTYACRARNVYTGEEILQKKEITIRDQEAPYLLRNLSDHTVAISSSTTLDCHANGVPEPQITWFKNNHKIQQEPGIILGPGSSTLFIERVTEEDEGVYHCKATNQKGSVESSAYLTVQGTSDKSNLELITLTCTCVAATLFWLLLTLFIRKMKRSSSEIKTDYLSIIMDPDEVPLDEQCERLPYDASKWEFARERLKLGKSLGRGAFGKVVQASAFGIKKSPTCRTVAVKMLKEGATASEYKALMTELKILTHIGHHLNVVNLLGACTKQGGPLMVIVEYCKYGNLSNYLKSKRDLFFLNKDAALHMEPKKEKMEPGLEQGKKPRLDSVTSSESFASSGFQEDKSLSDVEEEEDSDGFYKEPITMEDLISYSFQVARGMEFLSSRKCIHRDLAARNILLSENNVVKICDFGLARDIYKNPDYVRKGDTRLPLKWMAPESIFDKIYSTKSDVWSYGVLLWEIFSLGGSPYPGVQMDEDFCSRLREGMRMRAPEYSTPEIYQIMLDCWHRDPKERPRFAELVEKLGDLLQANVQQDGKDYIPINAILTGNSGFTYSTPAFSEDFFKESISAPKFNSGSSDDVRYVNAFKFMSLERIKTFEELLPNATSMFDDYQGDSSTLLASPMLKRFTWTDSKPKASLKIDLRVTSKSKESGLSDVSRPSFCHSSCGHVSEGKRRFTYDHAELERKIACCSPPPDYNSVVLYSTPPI

| HUVEC buds containing multiple filopodia [1] [%] | Hes1 reporter gene activity [2] [fold] | Substance |
| --- | --- | --- |
| 250 |  | P1GF (placental growth factor) (ligand) |
|  | 3.7 | Jagged1 (ligand) |
